The text below walks through data of patent US20240109955A1 (published 2024).

This assay concerns the target SARS-CoV-2 spike protein, original Wuhan strain (WT) (SARS-CoV-2, UniProt P0DTC2 14-1273). Put plainly: cell-based or functional assay.

B1: A19-61.1 (antibody, V domains shown)
VH: QVQLVESGGGVVQPGRSLRLSCAASGFTFSSYAFHWVRQAPGKGLEWVAVISYDGSNQYYADSVKGRFTISRDNSKNTLYLQMNSLRADDTAVYYCARDLAIAVAGTWHYYNGMDVWGQGTTVTVSS
VL: DIQMTQSPSSVSASVGDRVIITCRASQGISSWLAWYQQKPGKAPKVLIYDASSLQSGVPSRFSGSGYGTDFTLTISSLQPEDSATYYCQQAKSFPITFGQGTRLEIK
On to B1, for which the “IC50, pseudovirus neutralization” value is 0.172 nM.
